Test results from paper PMC3526285.

Test system: TRMT10C (native, untagged, in complex);SDR5C1 (Homo sapiens;Homo sapiens)
Assay: EMSA
Details: concentration refers to TRMT10C content; EMSA: 1 nM 5'-labelled pre-tRNA, 10 nM-1.2 uM protein, methylation/processing buffer (composition not in material) + 100 mM sucrose, 30 min at room …

Question: How did the Kd turn out when (mt)pre-tRNAHis was run?
Answer: 143 nM

Question: Which Kd does the source give for (mt)pre-tRNAIle here?
Answer: 88 nM
